Changes are numbered by the printed parent chain. Names and notes keep the numbering of the source.
T1: caCDH19(1-42)::FLAG::caCDH19(43-770), on 293T cells (dog)
T1 construct: also called Ca EC1-5
T1 chain: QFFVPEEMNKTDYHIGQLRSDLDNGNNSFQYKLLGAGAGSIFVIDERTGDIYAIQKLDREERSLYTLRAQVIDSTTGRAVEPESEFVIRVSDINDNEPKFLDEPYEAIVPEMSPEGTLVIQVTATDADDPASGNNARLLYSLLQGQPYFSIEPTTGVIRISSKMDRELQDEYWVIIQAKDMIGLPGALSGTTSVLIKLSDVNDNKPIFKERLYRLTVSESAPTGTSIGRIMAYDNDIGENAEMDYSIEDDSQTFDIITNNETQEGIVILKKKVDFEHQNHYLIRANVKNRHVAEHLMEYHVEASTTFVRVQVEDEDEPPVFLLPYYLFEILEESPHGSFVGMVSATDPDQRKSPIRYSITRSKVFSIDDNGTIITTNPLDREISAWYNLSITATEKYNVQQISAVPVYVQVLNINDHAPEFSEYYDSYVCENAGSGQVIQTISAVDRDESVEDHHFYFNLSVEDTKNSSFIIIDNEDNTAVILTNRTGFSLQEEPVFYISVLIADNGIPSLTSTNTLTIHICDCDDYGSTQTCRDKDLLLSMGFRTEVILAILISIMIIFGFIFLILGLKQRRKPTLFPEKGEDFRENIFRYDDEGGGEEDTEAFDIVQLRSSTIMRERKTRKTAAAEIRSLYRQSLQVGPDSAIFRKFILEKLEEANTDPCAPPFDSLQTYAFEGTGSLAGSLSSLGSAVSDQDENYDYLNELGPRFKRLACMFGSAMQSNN

T2: muCDH19(44-770), Flag-tagged, on 293T cells (mouse)
T2 construct: also called Mu EC1-5
T2 chain: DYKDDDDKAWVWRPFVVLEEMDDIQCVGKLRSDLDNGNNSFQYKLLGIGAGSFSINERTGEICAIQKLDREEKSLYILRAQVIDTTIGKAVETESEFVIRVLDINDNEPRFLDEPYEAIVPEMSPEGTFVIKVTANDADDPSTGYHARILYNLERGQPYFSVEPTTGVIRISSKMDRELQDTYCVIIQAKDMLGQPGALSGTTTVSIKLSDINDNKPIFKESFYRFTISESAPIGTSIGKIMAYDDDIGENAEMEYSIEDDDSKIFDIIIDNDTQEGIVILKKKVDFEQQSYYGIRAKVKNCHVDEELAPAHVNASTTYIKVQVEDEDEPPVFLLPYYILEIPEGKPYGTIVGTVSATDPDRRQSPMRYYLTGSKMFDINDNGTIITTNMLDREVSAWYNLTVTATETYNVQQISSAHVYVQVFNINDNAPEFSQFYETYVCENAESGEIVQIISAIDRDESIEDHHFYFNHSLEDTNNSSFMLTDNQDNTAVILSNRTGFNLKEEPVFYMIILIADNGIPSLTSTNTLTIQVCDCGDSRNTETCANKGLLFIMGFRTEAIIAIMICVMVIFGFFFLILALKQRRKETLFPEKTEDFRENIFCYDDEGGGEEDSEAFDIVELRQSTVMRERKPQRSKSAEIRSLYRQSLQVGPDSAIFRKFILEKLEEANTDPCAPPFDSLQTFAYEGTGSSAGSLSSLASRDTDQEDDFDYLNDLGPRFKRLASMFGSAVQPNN

T3: Cyno Cadherin-19 (cynomolgus monkey (Macaca fascicularis), UniProt Q9H159 44-772 (human entry))
T3 construct: also called cyno CDH19; cynomologous CDH-19
T3 chain: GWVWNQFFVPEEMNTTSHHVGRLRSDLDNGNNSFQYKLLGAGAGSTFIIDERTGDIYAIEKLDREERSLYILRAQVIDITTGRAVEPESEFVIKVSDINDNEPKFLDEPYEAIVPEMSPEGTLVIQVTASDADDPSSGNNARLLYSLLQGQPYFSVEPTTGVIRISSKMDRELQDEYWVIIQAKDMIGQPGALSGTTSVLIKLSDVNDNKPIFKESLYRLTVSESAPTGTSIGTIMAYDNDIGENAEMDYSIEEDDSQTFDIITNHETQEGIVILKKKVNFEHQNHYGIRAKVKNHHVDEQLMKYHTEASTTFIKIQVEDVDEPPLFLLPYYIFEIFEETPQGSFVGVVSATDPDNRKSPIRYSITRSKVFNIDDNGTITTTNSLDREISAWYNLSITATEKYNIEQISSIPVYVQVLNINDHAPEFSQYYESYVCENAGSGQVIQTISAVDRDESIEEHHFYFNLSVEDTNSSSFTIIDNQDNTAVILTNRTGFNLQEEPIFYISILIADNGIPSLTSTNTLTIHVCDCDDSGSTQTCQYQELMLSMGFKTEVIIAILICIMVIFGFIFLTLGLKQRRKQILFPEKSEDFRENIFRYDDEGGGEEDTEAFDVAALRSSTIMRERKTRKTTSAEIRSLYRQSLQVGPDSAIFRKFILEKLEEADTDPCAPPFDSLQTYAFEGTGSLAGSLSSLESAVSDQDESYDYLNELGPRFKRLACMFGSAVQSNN

B1: hu anti-<huCDH19> 4A9 VH::huIgG1z / 4A9 VL::huLLC-C1 (Ab ID 13589) (antibody, V domains shown)
VH: QVQLQESGPGLVKPSETLSLTCTVSGGSISGYYWSWIRQPPGKGLEWFAYFSYSGSTNYNPSLKSRVTLSVDTSKNQFSLKLSSVTAADTAVYYCARNWAFHFDFWGQGTLVTVSS
VL: QSVLTQPPSVSGAPGQRVTISCTGSSSNIGTGYAVHWYQQFPGTAPKLLIYGNNNRPSGVPDRFSGSKSGTSASLAITGLQAEDEADYYCQSYDSRLSGWVFGGGTKLTVLG
notes: Recombinant fully human IgG1
B2: anti-CDH19 antibody 2G6 (Ab ID 13588) (antibody, human IgG1, lambda, V domains shown)
VH: QVQLVESGGGVVQPGRSLRLSCAASGFTFSSYGMHWVRQAPGKGLEWVAFIWYDGSNKYYADSVKDRFTISRDNSKNTLYLQMKSLRAEDTAVYYCARRAGIIGTIGYYYGMDVWGQGTTVTVSS
VL: SYELTQPPSVSVSPGQTASITCSGDRLGEKYTCWYQQRPGQSPLLVIYQDTKRPSGIPERFSGSNSGNTATLTISGTQAMDEADYYCQAWDSSTVVFGGGTKLTVLG
B3: hu anti-<huCDH19> 26D1.1 VH::huIgG1z / 26D1.1 VL::huLLC-C2 (Ab ID 13882) (antibody, V domains shown)
VH: QVQLVQSGAEVKKPGASVKVSCKASRYTFTSYYMSWVRQAPGQGLEWMGIIHPSGGDTTYAQKFQGRVTMTGDTSTSTVYMELSSLRSEDTAVYYCARGGIKLWLHFDYWGQGTLVTVSS
VL: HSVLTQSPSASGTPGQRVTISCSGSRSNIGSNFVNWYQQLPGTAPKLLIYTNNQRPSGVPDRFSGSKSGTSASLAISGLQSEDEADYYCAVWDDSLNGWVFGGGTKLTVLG
B4: hu anti-<huCDH19> 4B10 VH::huIgG1z / 4B10 VL::huKLC (Ab ID 13590) (antibody, V domains shown)
VH: QVQLVESGGGVVQPGRSLRLSCAASGFTFSSYDMHWVRQAPGKGLEWVAVISYDGTNEYYADSVKGRFTISRDTSKNTLYLQMNSLRAEDTAVYYCARERYFDWSFDYWGQGTLVSVSS
VL: EIVLTQSPGTLSLSPGERATLSCRASQSVSNTYLAWYHQRPGQAPRLLIYGASSRATGIPDRFSGSGSGTDFALTISSLEPEDFAVYYCQQYSNSWTFGQGTKVEIKR
B5: hu anti-<huCDH19> 23A10.3 (1-474)(L92Q) VH::huIgG1z / 23A10.3 (1-231)(C42S) VL::huLLC-C2 (Ab ID 14077) (antibody, V domains shown)
VH: B2 VH with S31R, M34I, F50V, D66G, K84N, T91S, I103P, I106T
VL: B2 VL with T32V, C33S, R38K, L44I, T51N, R53W
notes: Engineered variant of 23A10
B6: anti-CDH19 antibody 4A2 (Ab ID 13592) (antibody, human IgG1, kappa, V domains shown)
VH: QVQLQESGPGLVKPSQTLSLTCTVSGGSISSSGYYWSWIRQHPGKGLEWIGYIYYTGSAYYNPSLKSRVTISVDTSKNQFSLKLSSVTAADTAVYYCARDGSSGWYFQYWGQGTLVTVSS
VL: EIVLTQSPGTLSLSPGERATLSCRASRNISSSYLAWYQQKPGQAPRLLIYGPSSRATGIPDRFSGSGSGTDFTLTISRLEPEDFTVYYCQQYGSSFTFGPGTKVDIKR

Assays:
[1] = target: T4, huCDH19(44-141)::muCDH19(140-770), Flag-tagged, on 293T cells (human/mouse chimera); test: FACS, transfected 293T
T4 construct: also called Hu EC1
From the text: (§1) The experiment included assaying the anti-CDH19 antibodies against mouse Cadherin19 to determine suitability for binning on these human/mouse chimeras.

[2] = target: T5, huCDH19(44-249)::muCDH19(248-770), Flag-tagged, on 293T cells (human/mouse chimera); test: FACS, transfected 293T
T5 construct: also called Hu EC1-2; C137896
From the text: as §1

[3] = target: T1, caCDH19(1-42)::FLAG::caCDH19(43-770), …; test: FACS, transfected 293T
Method: (§2) The following binding assay was completed in presence of 2 mM CaCl2. […] Cells were then washed one time and the amount of cell associated Alexa647-labelled Ab was quantitated by flow cytometry. The experiments included mock transfected controls.

[4] = target: T6, rhCDH19(1-43)::FLAG::rhCDH19(44-141)::caCDH19(141-770), on 293T cells (rhesus macaque/dog chimera); test: FACS, transfected 293T
T6 construct: Entry holds leader (1-43), Flag tag and CDH19 part; leader left out; also called rh EC1 (dog backbone)
Method: as §2

[5] = target: T7, rhCDH19(1-43)::FLAG::rhCDH19(44-65)::caCDH19(65-770), on 293T cells (rhesus macaque/dog chimera); test: FACS, transfected 293T
T7 construct: Entry holds leader (1-43), Flag tag and CDH19 part; leader left out; also called rh EC1a (dog backbone)
Method: as §2

[6] = target: T2, muCDH19(44-770), Flag-tagged, on 293T …; test: FACS, transfected 293T
Cyno Cadherin-19 = target: T3, Cyno Cadherin-19; test: FACS, recombinant cyno CDH19

Binder	binding result [1]	binding result [2]	binding result [3]	binding result [4]	binding result [5]	binding result [6]	binding result (Cyno Cadherin-19)
B1	binds	binds	no binding (tested: 5 ug/ml)	binds	no binding (tested: 5 ug/ml)	no binding (tested: 5 ug/ml)	binds
B2	binds	binds				binds	binds
B3	binds	binds	no binding (tested: 5 ug/ml)	binds	binds	no binding (tested: 5 ug/ml)	binds
B4						no binding (tested: 5 ug/ml)	binds
B5						binds	
B6							binds

— patent publication US20140322218A1 (Amgen, published 2014)
